# Data as given in the supplement of paper PMC9732359.
# ± gives the uncertainty stated by the source.
# Experiment: protein stability index of a GFP-peptide fusion (yeast GPS) (PSI 1-4); higher = more stable; sorted into four equal gates, so the index is relative within each strain
# Conditions: doa10∆
# In short: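 Tiled 17-residue peptides from yeast proteins were fused downstream of GFP on a plasmid that also expresses Cherry, and the pooled library was carried in yeast. Mid-log cultures grown in leucine-free medium were sorted into four equal gates by GFP/Cherry fluorescence ratio. Plasmids from each gate were PCR-amplified and Illumina-sequenced, and reads were assigned to strains by barcodes. Each peptide's protein stability index is the sum, over gates, of the gate's read frequency multiplied by its gate number.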
row,Sequence,protein stability index
1,TNVSKQNDFLFSVGESL [ECM29],2.56 ± 0.055
2,TPAAATSPIDIREKVAK [SNF2],2.75 ± 0.11
3,TPAFGSNNTGNTAFGNS [YJL041W/NSP1],2.85 ± 0.11
4,TPANTNNSTSNANTVFS [SWI1],2.5 ± 0.057
5,TPISNEQTEGEPKKKRG [SRP68],3.16 ± 0.12
6,TPKVVRSQDQENPAFLP [SEC65],2.66 ± 0.074
7,TPNMVNSEISNLPKDKS [SSN2],2.74 ± 0.08
8,TPRDRRKSVFAPLNFNP [SSN2],2.68 ± 0.066
9,TPSSNSNSSELEPDYQA [MED1],2.74 ± 0.13
10,TPTDVIGVVSLTNGVTE [RRP6],3.21 ± 0.14
11,TPVQPDLSVTPQKSSSK [YAR002W/NUP60],3.15 ± 0.04
12,TQAKKLYHHTTKTILSG [SRP72],3.17 ± 0.069
13,TQHKVTQYKAGKASLFA [RPL42A],3.29 ± 0.076
14,TQLQRGGTSDMNYLLDN [CSI1],2.89 ± 0.097
15,TQSGGVRPFGVSTLIAG [PRE6],1.5 ± 0.14
16,TQTSKEQEIENNGLPMK [ITC1],2.9 ± 0.075
17,TREDVSPHYNSQKQTLI [SSN3],2.16 ± 0.05
18,TRGPFHFRAPSRILYKA [RPL16B],2.3 ± 0.064
19,TRINGLNSNNSIIGNKN [REC8],3.2 ± 0.089
20,TRLWGSVYYHKGNFRTK [SNU114],3.35 ± 0.064
21,TRQFEGRSNEIVKTTTK [PRP8],3.14 ± 0.058
22,TRSAKKMVIAELLPHYP [YJR042W/NUP85],2.83 ± 0.089
23,TRSKRLSQVYPTLVRSV [CSN12],1.72 ± 0.12
24,TRSNPPFKRKMLLVDII [REC8],1.9 ± 0.098
25,TRVHQLMLEDAVTEREV [MCD1],3.35 ± 0.22
26,TRYNRDYMLSMANIPER [SNU114],1.48 ± 0.073

row,Sequence,protein stability index
1,TSAGIMDHEEARRKHVS [RPS22A],2.87 ± 0.3
2,TSCTIPKAVVDHINGSG [GAL11],2.23 ± 0.083
3,TSGEAAALGMGLCMLGT [RPN2],2.92 ± 0.19
4,TSIHSTISILAAPSGNY [RRP43],1.59 ± 0.038
5,TSLLNKVLKSGSGVDSS [RRP42],2.87 ± 0.12
6,TSLLYLSTLEPSTSITL [RPN9],2.36 ± 0.059
7,TSSKSSSLSAIIVFGYP [YDL088C/ASM4],2.31 ± 0.055
8,TSSNIVLETHESGIKPY [RPT6],2.55 ± 0.097
9,TSSQKEPFFLVTKITDM [SRB8],2.36 ± 0.059
10,TTAEPKAKRAKTGSAST [TAF14],3.2 ± 0.077
11,TTDDEEEPIKKLCYVLG [RET1],3.42 ± 0.27
12,TTESSDLKEGLQDLSRY [GRR1],3.24 ± 0.12
13,TTKLAFLVEYEGQENNY [SIR4],2.87 ± 0.085
14,TTLTIMRILPRETDPLV [RPT4],2.63 ± 0.068
15,TTRNGFMEAQGAGIQII [FAS2],2.81 ± 0.13
16,TTSEKQEVTNEAPFLTS [GAL11],3.2 ± 0.093
17,TVEGISKLLREHGYQSR [RPB2],3.4 ± 0.21
18,TVHEMEEELKKLRDHEP [SMC4],3.54 ± 0.27
19,TVIKFRAGVCEYNEDSR [RPN13],2.26 ± 0.12
20,TVLADEFIAHRLGLIPL [RPB3],2.4 ± 0.087
21,TVLESLGRLNKLRKIAI [LIN1],2.66 ± 0.057
22,TVMYQRRSKMNPLWNAI [PRE4],2.83 ± 0.084
23,TVTDDARIFEFPKTTVA [RPL18A],2.68 ± 0.056
24,TVVISQKKVPDKLLDPT [SCL1],2.85 ± 0.1
25,TWEECVFFDDDPLYDIT [REC8],3 ± 0.13
26,TYAAEIAHNISAKNRVV [RPL32],2.07 ± 0.043

row,Sequence,protein stability index
1,TYKYFEVILVDPQHKAI [RPL15A],2.32 ± 0.083
2,TYVITKNGKIYLKHNSI [RET1],2.72 ± 0.053
3,TYVLNTWTNSKIFIKDP [YML103C/NUP188],2 ± 0.056
4,VAARGLDIPNVSLVVNF [PRP28],2 ± 0.12
5,VADAKQLGEWAGLGKID [RPS12],3.67 ± 0.28
6,VAFDNINTHIETLAYNS [SNF2],2.56 ± 0.1
7,VAGLEDKFRKACSSSGR [SIR3],3.16 ± 0.14
8,VAHSSRLANLIDYKLRV [SMB1],3.58 ± 0.15
9,VALTGLLIRSKTEDPKG [YML031W/NDC1],1.71 ± 0.041
10,VANSTKAAFIRVNGSEF [RPT3],1.92 ± 0.05
11,VANYSAMANAPGNNIPY [GAL11],2.88 ± 0.16
12,VAPVSEIVNMVPSHVPQ [SIR2],3.01 ± 0.09
13,VARFLHFNGIRRLDALV [ITC1],3.44 ± 0.16
14,VASSTNFTSPTAVVNNA [SWI1],2.64 ± 0.094
15,VCLMQISTRERDYLVDT [RRP6],3.3 ± 0.22
16,VCQVTKFGLLLQVSAQE [ECM29],2.15 ± 0.061
17,VDAGIALNSMCASIPIA [RRP46],1.65 ± 0.12
18,VDEELGPSIYKTDPAGY [SCL1],3.12 ± 0.084
19,VDFDGLDIKRVGSENVE [SNF12],3.3 ± 0.19
20,VDFSKYNTNFNLLLREL [SRP72],2.99 ± 0.1
21,VDIKGEDLHEKNDSAEV [NUT1],3.54 ± 0.12
22,VDIYSLPLISTDVLEIS [YMR129W/POM152],2.06 ± 0.052
23,VDIYTHFTSPIRRYCDV [DIS3],1.61 ± 0.043
24,VDKNFDKLELYVLRNVL [MTW1],3.01 ± 0.096
25,VDLEEVMDTIQEQITLY [SSN8],3.33 ± 0.13
26,VDPARRQILFKYPMYMQ [MED6],1.54 ± 0.069

row,Sequence,protein stability index
1,VDPASAPNHSPEIDNLD [RRP6],3.1 ± 0.11
2,VDPLKSLEDKILRMGAF [RRI1],3.19 ± 0.12
3,VDQNPLTMHKIIQLILW [SRB8],1.47 ± 0.085
4,VDSNLPDDEKFTDENTI [RPC40],2.35 ± 0.15
5,VDSQGLPYNWDALEMQW [ARP7],1.7 ± 0.066
6,VEAIRRSNQYQRGKMHG [NUT2],2.85 ± 0.085
7,VECAQHCIDYLRKNKLG [SMC4],1.44 ± 0.07
8,VEEAHDFNMKLAINAKT [RPB2],3.09 ± 0.072
9,VEESSEKKQKTESQDVE [DPB4],2.8 ± 0.13
10,VELIESKINELSYYVEE [SMC4],3.29 ± 0.12
11,VELPYGAHGYSGFYTFS [PRE1],2.92 ± 0.17
12,VESVCQKLDILVAKLKK [SMC4],1.9 ± 0.093
13,VEVIKQLSLDASKTNLR [GAL11],2.51 ± 0.063
14,VEYKLTFVPTNSDKPRD [DIS3],1.21 ± 0.14
15,VFLLLQAYFSRLELPVD [BRR2],1.59 ± 0.05
16,VFLLTTRAGGLGINLVT [ISW2],1.69 ± 0.076
17,VFSHAQTAVTCESCSTI [RPS27A],1.47 ± 0.091
18,VFVDGEANWPLPVNIRR [RPO21],2.99 ± 0.081
19,VGDEFKGYVFKISGGND [RPS6A],3.08 ± 0.28
20,VGFWKDDGDDEDLLECL [MTR3],2.67 ± 0.15
21,VGKDTPFTIYDGEAVAK [PRE5],2.7 ± 0.075
22,VGSVTYQVDEDVKSSLS [YJL039C/NUP192],3.26 ± 0.15
23,VHCRISCQIAQPYEDRP [RRP45],1.63 ± 0.064
24,VHDIFSKIFNESFPDDI [CDC53],2.86 ± 0.069
